{
  "source": "paper PMC10086585",
  "about": "(2023)",
  "binders": {"B1": {"name": "fibronectin leucine‐rich transmembrane protein (FLRT1), recombinant human (natural protein)", "chain": "IDSTTCPSVCRCDNGFIYCNDRGLTSIPADIPDDATTLYLQNNQINNAGIPQDLKTKVNVQVIYLYENDLDEFPINLPRSLRELHLQDNNVRTIARDSLARIPLLEKLHLDDNSVSTVSIEEDAFADSKQLKLLFLSRNHLSSIPSGLPHTLEELRLDDNRISTIPLHAFKGLNSLRRLVLDGNLLANQRIADDTFSRLQNLTELSLVRNSLAAPPLNLPSAHLQKLYLQDNAISHIPYNTLAKMRELERLDLSNNNLTTLPRGLFDDLGNLAQLLLRNNPWFCGCNLMWLRDWVKARAAVVNVRGLMCQGPEKVRGMAIKDITSEMDECFETGPQGGVANAAAKTTASNHASATTPQGSLFTLKAKRPGLRLPDSNIDYPMATGDGAKTLAIHVKALTADSIRITWKATLPASSFRLSWLRLGHSPAVGSITETLVQGDKTEYLLTALEPKSTYIICMVTMETSNAYVADETPVCAKAETADSYGPTTTLNQEQNAGPMASLP"}},
  "molecular_target": "human recombinant netrin‐1, on AHC biosensors (human, UniProt O95631 25-604)",
  "test": "BLI",
  "data": [
    {"binder": "B1", "values": [
      {"measurement": "Kd", "result": 20.7, "unit": "nM"}
    ]}
  ]
}
